B1: wild-type VDRE2 probe, hCYP24A1 promoter (dsDNA)
DNA 1: CGAAGCACACCCGGTGAACTCCGGGCTT
DNA 2: AAGCCCGGAGTTCACCGGGTGTGCTTCG
B2: unlabeled wild-type VDRE2 competitor (dsDNA)
DNA 1: CGAAGCACACCCGGTGAACTCCGGGCTT
DNA 2: AAGCCCGGAGTTCACCGGGTGTGCTTCG

How the values were obtained:
VDR;RXRα [1] = molecular target: T1, VDR;RXRα (human;human, UniProt P11473;P19793 1-427;1-462, |); assay: EMSA
VDR;RXRα [2] = molecular target: T1, VDR;RXRα; assay: competition

T1 sequence (P11473 whole entry, chain 1 of 2): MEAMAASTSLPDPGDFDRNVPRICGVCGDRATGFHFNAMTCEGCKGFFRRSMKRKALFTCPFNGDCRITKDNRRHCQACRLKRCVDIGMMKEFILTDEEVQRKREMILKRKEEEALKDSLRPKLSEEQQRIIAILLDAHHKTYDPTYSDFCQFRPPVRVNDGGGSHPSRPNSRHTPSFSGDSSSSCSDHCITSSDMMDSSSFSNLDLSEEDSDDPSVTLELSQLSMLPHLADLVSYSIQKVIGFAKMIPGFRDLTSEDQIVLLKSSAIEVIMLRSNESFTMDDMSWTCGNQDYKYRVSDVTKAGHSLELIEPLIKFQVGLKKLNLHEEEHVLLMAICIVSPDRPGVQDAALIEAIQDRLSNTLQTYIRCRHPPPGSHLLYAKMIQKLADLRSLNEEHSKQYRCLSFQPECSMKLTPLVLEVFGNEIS
T1 sequence (P19793 whole entry, chain 2 of 2): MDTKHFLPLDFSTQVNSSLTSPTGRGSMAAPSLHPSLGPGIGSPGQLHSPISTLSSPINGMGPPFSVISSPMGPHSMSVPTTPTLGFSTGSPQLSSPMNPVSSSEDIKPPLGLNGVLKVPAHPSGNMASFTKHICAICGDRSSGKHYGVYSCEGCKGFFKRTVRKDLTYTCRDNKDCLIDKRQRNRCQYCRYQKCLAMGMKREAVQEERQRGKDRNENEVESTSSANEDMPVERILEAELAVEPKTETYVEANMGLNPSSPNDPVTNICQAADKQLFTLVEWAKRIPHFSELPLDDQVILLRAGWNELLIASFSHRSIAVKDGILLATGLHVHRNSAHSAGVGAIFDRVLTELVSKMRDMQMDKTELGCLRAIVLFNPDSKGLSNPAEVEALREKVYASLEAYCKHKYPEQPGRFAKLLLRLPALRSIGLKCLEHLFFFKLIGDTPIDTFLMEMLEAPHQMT

Binder | binding result (VDR;RXRα [1]) | binding result (VDR;RXRα [2])
B1 | binds | –
B2 | – | binds

— article PMC2749287
